The text below walks through data of patent publication US20250188176A1 (INVETX, published 2025).

Numbering of substitutions follows the chain as printed.

To fix the notation:
T1: Extracellular domain (ECD) of the canine IL-4 receptor alpha-V5 epitope-AviTag-His Tag (canine)
T1 construct: monomeric form isolated by size exclusion; also called canine IL-4RA-V5-Avi-His; canine IL-4RA
T1 chain: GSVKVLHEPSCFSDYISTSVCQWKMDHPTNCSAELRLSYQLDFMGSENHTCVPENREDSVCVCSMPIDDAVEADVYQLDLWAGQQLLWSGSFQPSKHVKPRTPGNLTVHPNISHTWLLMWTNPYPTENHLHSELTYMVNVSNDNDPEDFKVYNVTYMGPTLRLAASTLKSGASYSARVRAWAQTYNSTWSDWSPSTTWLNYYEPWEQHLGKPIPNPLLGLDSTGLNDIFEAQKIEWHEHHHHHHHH

T2: Extracellular domain (ECD) of the canine IL-4 receptor alpha-AviTag-His Tag (canine)
T2 construct: expressed in CHO cells; also called canine IL-4RA; canine IL4Ra
T2 chain: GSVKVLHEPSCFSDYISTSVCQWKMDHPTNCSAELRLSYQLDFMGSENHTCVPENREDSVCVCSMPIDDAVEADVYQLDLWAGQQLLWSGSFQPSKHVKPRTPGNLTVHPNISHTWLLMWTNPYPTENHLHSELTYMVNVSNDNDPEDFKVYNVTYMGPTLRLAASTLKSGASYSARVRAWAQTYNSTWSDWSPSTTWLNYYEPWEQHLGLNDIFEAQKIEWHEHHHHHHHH

B1: TB640_005 Fab-SASA VL-L30A (Fab, V domains shown)
VH: EVQLVESGGDLVKPGGSLRLSCVASGFTFRDYAMTWVRQAPGKGLQWVSLISGSGGKTYYADAVKGRFTISRDNAKNTLYLQMNSLRAEDTAVYYCAVDRLTKTIRPQYYGLWVWGQGTLVTVSS
VL: DIVMTQTPLSLSVSPGETASISCRSSQSLAYSIGYNYLDWYLQKPGQSPQGLIYLGSKRASGVPDRFSGSGSGTDFTLRISRVEANDTGVYYCMQGLQSPLTFGQGTKLEIKR
notes: not shown: SASA tag then His-tag
B2: TB640_005 Fab-SASA VL-T102G (Fab, V domains shown)
VH: B1 VH
VL: B1 VL with A30L, T102G
notes: as for B1
B3: TB640_005 Fab-SASA VL-I33A (Fab, V domains shown)
VH: B1 VH
VL: B1 VL with A30L, I33A
notes: as for B1
B4: TB640_005 Fab-SASA VL-Q27L (Fab, V domains shown)
VH: B1 VH
VL: B1 VL with Q27L, A30L
notes: as for B1
B5: TB640_005 Fab-SASA VL-T102N (Fab, V domains shown)
VH: B1 VH
VL: B1 VL with A30L, T102N
notes: as for B1
B6: TB640_005 Fab-SASA VL-L55M (Fab, V domains shown)
VH: B1 VH
VL: B1 VL with A30L, L55M
notes: as for B1
B7: TB640_005 Fab-SASA VL-G96P (Fab, V domains shown)
VH: B1 VH
VL: B1 VL with A30L, G96P
notes: as for B1
B8: TB640_005 Fab-SASA VL-S57N (Fab, V domains shown)
VH: B1 VH
VL: B1 VL with A30L, S57N
notes: as for B1
B9: TB640_005 Fab-SASA VL-Q27E (Fab, V domains shown)
VH: B1 VH
VL: B1 VL with Q27E, A30L
notes: as for B1
B10: TB640_005 Fab-SASA VL-T102L (Fab, V domains shown)
VH: B1 VH
VL: B1 VL with A30L, T102L
notes: as for B1
B11: TB640_005 Fab-SASA VL-Q27H (Fab, V domains shown)
VH: B1 VH
VL: B1 VL with Q27H, A30L
notes: as for B1
B12: TB640_005 Fab-SASA VL-Q27T (Fab, V domains shown)
VH: B1 VH
VL: B1 VL with Q27T, A30L
notes: as for B1
B13: TB640_005 Fab-SASA VL-L101N (Fab, V domains shown)
VH: B1 VH
VL: B1 VL with A30L, L101N
notes: as for B1
B14: TB640_005 Fab-SASA VL-I33V (Fab, V domains shown)
VH: B1 VH
VL: B1 VL with A30L, I33V
notes: as for B1
B15: TB640_005 Fab-SASA VL-S57T (Fab, V domains shown)
VH: B1 VH
VL: B1 VL with A30L, S57T
notes: as for B1
B16: TB640_005 Fab-SASA VL-Y35M (Fab, V domains shown)
VH: B1 VH
VL: B1 VL with A30L, Y35M
notes: as for B1
B17: TB640_005 Fab-SASA VL-Q95N (Fab, V domains shown)
VH: B1 VH
VL: B1 VL with A30L, Q95N
notes: as for B1
B18: TB640_005 Fab-SASA VL-A60L (Fab, V domains shown)
VH: B1 VH
VL: B1 VL with A30L, A60L
notes: as for B1
B19: TB640_005 Fab-SASA VL-T102S (Fab, V domains shown)
VH: B1 VH
VL: B1 VL with A30L, T102S
notes: as for B1
B20: TB640_005 Fab-SASA VL-A60M (Fab, V domains shown)
VH: B1 VH
VL: B1 VL with A30L, A60M
notes: as for B1
B21: TB640_005 Fab-SASA VL-I33P (Fab, V domains shown)
VH: B1 VH
VL: B1 VL with A30L, I33P
notes: as for B1
B22: TB640_005 Fab-SASA VL-S57H (Fab, V domains shown)
VH: B1 VH
VL: B1 VL with A30L, S57H
notes: as for B1
B23: TB640_005 Fab-SASA VL-L30T (Fab, V domains shown)
VH: B1 VH
VL: B1 VL with A30T
notes: as for B1
B24: FJP05A03-H + FJP10A09-L (antibody, V domains shown)
VH: B1 VH with F27L, T28P, T35A, V48L
VL: B1 VL with A30T, L42M, P64S, T74A, R79K, N86D, T88A, Q98H, T102S
B25: FJP05A03-H + GFmix3_KTHS-L (antibody, V domains shown)
VH: B1 VH with F27L, T28P, T35A, V48L
VL: B1 VL with Q27K, A30T, L42M, P64S, T74A, R79K, N86D, T88A, Q98H, T102S
B26: GFmix_PTH-H + FJP10A09-L (antibody, V domains shown)
VH: B1 VH with T28P, V48L, V114H
VL: B1 VL with A30T, L42M, P64S, T74A, R79K, N86D, T88A, Q98H, T102S
B27: FJP05A03-H + GFmix_THS-L (antibody, V domains shown)
VH: B1 VH with F27L, T28P, T35A, V48L
VL: B1 VL with A30T, L42M, P64S, T74A, R79K, N86D, T88A, Q98H, T102G

The target of the first experiment is T1, Extracellular domain (ECD) of the …. Put plainly: SPR, Fab-SASA captured on BSA.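 Also: biacore T200 SPR, Fab-SASA variants from E. coli conditioned medium captured on BSA-coated CM5 chip, canine IL-4RA injected 120 s then 420 s dissociation, 1:1 model fit.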
Protocol: Forty-four PML clones were selected from each library for expression in E. coli in 96 deep-well plates by inoculating into 2YT medium and inducing with 0.2 mM IPTG overnight at room temperature. The Fab secreted in the medium was analyzed for binding activity by completing an ELISA. […] The 39 unique clones were confirmed by an off-rate screening assay in an SPR assay performed on a Biacore T200. For the SPR analyses, bovine serum albumin (BSA) was immobilized to CM5 sensor chip. The sensor chip surface was activated with 50 mmol/L H-Hydroxysuccinimide and 200 mmol/L 1-ethyl-3-(3-dimethylaminopropyl) carbodiimide hydrochloride for 420 s. Afterwards, BSA diluted in 10 mM sodium acetate, pH 4.5 was injected. After the amine coupling reaction, the remaining active coupling sites on the chip surface were blocked with 1 mM ethanolamine hydrochloride. The selected Fab-SASA variants in conditioned medium were captured on the BSA-coated chips. The running buffer was HBS-EP (10 mM HEPES 500 mM NaCl, 3 mM EDTA, 0.05% Tween 20, pH 7.4). After equilibration, canine IL-4RA was injected for 120 seconds (association phase) followed by the injection of running buffer for 420 sec (dissociation phase). The off-rates of the Fab-SASA clones were obtained from fitting the experimental data locally to a 1:1 interaction model using the Biacore T200 evaluation software.
For the molecule B1, the Kd was determined as 27.3 nM, the “Ratio WT-kd/clone-kd” value was determined as 0.51, the koff was determined as 0.00187 s⁻¹ and the kon is 68600 M⁻¹ s⁻¹.
Turning to B2, the dissociation constant (Kd) turned out to be 5.74 nM, the “Ratio WT-kd/clone-kd” value amounted to 2.11, the off-rate constant (koff) worked out at 0.000451 s⁻¹ and the kon is 78500 M⁻¹ s⁻¹.
On to B3, for which the Kd amounted to 20.1 nM, the “Ratio WT-kd/clone-kd” value was 0.62, the off-rate (koff) turned out to be 0.00153 s⁻¹ and the kon was determined as 75900 M⁻¹ s⁻¹.
In the case of B4, binding was put at a Kd of 15.5 nM, the “Ratio WT-kd/clone-kd” value worked out at 0.96, the koff is 0.000996 s⁻¹ and the kon is 64200 M⁻¹ s⁻¹.
The matching figures for B5: 6.83 nM, 1.74, 0.000548 s⁻¹ and 80100 M⁻¹ s⁻¹.
For B6, the Kd came out at 7.97 nM, the “Ratio WT-kd/clone-kd” value came out at 1.42, the koff is 0.000669 s⁻¹ and the on-rate (kon) turned out to be 83900 M⁻¹ s⁻¹.
The matching figures for B7: 3.27 nM, 2.66, 0.000358 s⁻¹ and 109000 M⁻¹ s⁻¹.
On to B8, for which the Kd stood at 8.8 nM, the “Ratio WT-kd/clone-kd” value stood at 1.32, the koff is 0.00072 s⁻¹ and the kon was determined as 81800 M⁻¹ s⁻¹.
Consider B9, for which the equilibrium dissociation constant (Kd) came to 13.4 nM, the “Ratio WT-kd/clone-kd” value was found to be 1.09, the koff was 0.000873 s⁻¹ and the on-rate (kon) came to 65300 M⁻¹ s⁻¹.
Taken in the same sequence, the figures for B10 were 6.53 nM, 1.7, 0.000562 s⁻¹ and 86000 M⁻¹ s⁻¹.
The matching figures for B11: 14.9 nM, 0.97, 0.000979 s⁻¹ and 65700 M⁻¹ s⁻¹.
In the case of B12, the Kd is 15.9 nM, the “Ratio WT-kd/clone-kd” value worked out at 0.86, the off-rate (koff) came to 0.00111 s⁻¹ and the kon worked out at 69700 M⁻¹ s⁻¹.
Consider B13, for which the affinity, expressed as Kd, was 9.76 nM; the “Ratio WT-kd/clone-kd” value was found to be 0.3; the dissociation rate constant (koff) came to 0.00321 s⁻¹; the kon amounted to 328000 M⁻¹ s⁻¹.
The matching figures for B14: 12.7 nM, 0.94, 0.00101 s⁻¹ and 79800 M⁻¹ s⁻¹.
For B15, binding was put at a Kd of 15 nM, the “Ratio WT-kd/clone-kd” value came out at 0.91, the dissociation rate constant (koff) came out at 0.00105 s⁻¹ and the kon is 70400 M⁻¹ s⁻¹.
On to B16, for which binding was characterised by a dissociation constant (Kd) of 8.34 nM, the “Ratio WT-kd/clone-kd” value was 1.02, the koff came to 0.000932 s⁻¹ and the kon stood at 112000 M⁻¹ s⁻¹.
As to B17, the affinity, expressed as Kd, was 4.15 nM; the “Ratio WT-kd/clone-kd” value came to 1.99; the off-rate (koff) stood at 0.00048 s⁻¹; the kon was determined as 116000 M⁻¹ s⁻¹.
B18: the Kd turned out to be 5.41 nM, the “Ratio WT-kd/clone-kd” value worked out at 0.98, the koff was 0.000974 s⁻¹ and the kon was 180000 M⁻¹ s⁻¹.
As to B19, binding was characterised by a dissociation constant (Kd) of 6.61 nM, the “Ratio WT-kd/clone-kd” value is 1.94, the off-rate constant (koff) was 0.000492 s⁻¹ and the kon was 74400 M⁻¹ s⁻¹.
B20: the dissociation constant Kd worked out at 4.52 nM, the “Ratio WT-kd/clone-kd” value turned out to be 1.12, the off-rate constant (koff) worked out at 0.00085 s⁻¹ and the association rate constant (kon) was 188000 M⁻¹ s⁻¹.
In the case of B21, the equilibrium dissociation constant (Kd) was 12.5 nM, the “Ratio WT-kd/clone-kd” value stood at 0.7, the koff is 0.00137 s⁻¹ and the on-rate constant (kon) worked out at 109000 M⁻¹ s⁻¹.
The matching figures for B22: 8.2 nM, 1.41, 0.000677 s⁻¹ and 82600 M⁻¹ s⁻¹.
Regarding B23, the Kd amounted to 11.8 nM, the “Ratio WT-kd/clone-kd” value amounted to 1.54, the off-rate constant (koff) came to 0.000618 s⁻¹ and the kon is 52200 M⁻¹ s⁻¹.

The target of a further experiment is T2, Extracellular domain (ECD) of the …. Kind of experiment: SPR, IgG captured via anti-dog Fc.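 Also: biacore T200 SPR with antibodies captured on CM5 chip bearing anti-dog Fc, 120 s association then 600 s dissociation, double-referenced sensorgrams fitted with 1:1 binding model.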
Protocol: Both the heavy and light chain variants were evaluated for their binding kinetics to canine IL-4RA using SPR on a Biacore T200. The antibodies were captured using a CM5 Series S chip amine coupled with an anti-dog Fc antibody (Jackson Immunoresearch). […] The length of the association time was 120 s and the dissociation time was run for 600 s. The chip surface was regenerated with 10 mM glycine. Double reference-subtracted sensorgrams were fitted to a 1:1 binding model using Biacore T200 Evaluation software.
Six different combinations of heavy and light chain variants (Table 30) were co-transfected and produced as described above. The binding kinetics of the heavy and light chain variants to canine IL-4RA was determined using the SPR methods described above.
B24: binding was characterised by a dissociation constant (Kd) of 0.201 nM, the koff was 8.87e-05 s⁻¹ and the on-rate constant (kon) was 442000 M⁻¹ s⁻¹.
B25 registered a Kd of 0.187 nM, a dissociation rate constant (koff) of 8.68e-05 s⁻¹ and a kon of 466000 M⁻¹ s⁻¹.
In turn, B26 showed a Kd of 0.167 nM, a koff of 7e-05 s⁻¹ and an on-rate (kon) of 419000 M⁻¹ s⁻¹.
B27 registered a dissociation constant (Kd) of 0.169 nM, a koff of 8.32e-05 s⁻¹ and a kon of 492000 M⁻¹ s⁻¹.
